This is an account of results in PMC10779143, “Collagen-like Osteoclast-Associated Receptor (OSCAR)-Binding Motifs Show a Co-Stimulatory Effect on Osteoclastogenesis in a Peptide Hydrogel System” (International Journal of Molecular Sciences, 2023).

[ ]: non-standard residue; d: D form. Hyp = O=C(O)[C@@H]1C[C@@H](O)CN1

For this assay, the target named is T1, Recombinant human OSCAR-Fc chimera (human).
T1 construct: extracellular region of human osteoclast-associated receptor (OSCAR), Asp19-Asn229 of NP_573399; In the functional rows the OSCAR of the test system is the endogenous mouse receptor of Raw 264.7 cells, not this construct; also called osteoclast-associated receptor; source: bought: R&D Systems, Bio-Techne, 9955-OS
In words: SPR; Biacore T200, CM5 chip; OSCAR-Fc immobilised by amine coupling to 6880 RU; peptides flowed as analytes at 30 µL/min, 25 °C, 10 mM PBS, 150 mM NaCl, 0.05% Tween20, pH 7.4; OP1_Hyp 5000-0 nM (Langmuir 1:1 kinetic fit), OP1_Pro 40,000-0 nM (steady-state analysis). The note with it: both partners purified.

B1: OP1_Pro (peptide)
chain: Ac-GP[Hyp]GP[Hyp]GP[Hyp]GAPGPAGFAGP[Hyp]GP[Hyp]GP[Hyp]-NH2
SMILES: CC(=O)NCC(=O)N1CCC[C@H]1C(=O)N1C[C@H](O)C[C@H]1C(=O)NCC(=O)N1CCC[C@H]1C(=O)N1C[C@H](O)C[C@H]1C(=O)NCC(=O)N1CCC[C@H]1C(=O)N1C[C@H](O)C[C@H]1C(=O)NCC(=O)N[C@@H](C)C(=O)N1CCC[C@H]1C(=O)NCC(=O)N1CCC[C@H]1C(=O)N[C@@H](C)C(=O)NCC(=O)N[C@@H](Cc1ccccc1)C(=O)N[C@@H](C)C(=O)NCC(=O)N1CCC[C@H]1C(=O)N1C[C@H](O)C[C@H]1C(=O)NCC(=O)N1CCC[C@H]1C(=O)N1C[C@H](O)C[C@H]1C(=O)NCC(=O)N1CCC[C@H]1C(=O)N1C[C@H](O)C[C@H]1C(N)=O
For orientation: Kd means the free concentration of one partner at which half of the binding sites on the other are occupied at equilibrium, for simple one-to-one binding. On to B1, for which the dissociation constant (Kd) came to 19.5 µM.

B2: OP1_Hyp (peptide)
chain: Ac-GP[Hyp]GP[Hyp]GP[Hyp]GA[Hyp]GPAGFAGP[Hyp]GP[Hyp]GP[Hyp]-NH2
SMILES: CC(=O)NCC(=O)N1CCC[C@H]1C(=O)N1C[C@H](O)C[C@H]1C(=O)NCC(=O)N1CCC[C@H]1C(=O)N1C[C@H](O)C[C@H]1C(=O)NCC(=O)N1CCC[C@H]1C(=O)N1C[C@H](O)C[C@H]1C(=O)NCC(=O)N[C@@H](C)C(=O)N1C[C@H](O)C[C@H]1C(=O)NCC(=O)N1CCC[C@H]1C(=O)N[C@@H](C)C(=O)NCC(=O)N[C@@H](Cc1ccccc1)C(=O)N[C@@H](C)C(=O)NCC(=O)N1CCC[C@H]1C(=O)N1C[C@H](O)C[C@H]1C(=O)NCC(=O)N1CCC[C@H]1C(=O)N1C[C@H](O)C[C@H]1C(=O)NCC(=O)N1CCC[C@H]1C(=O)N1C[C@H](O)C[C@H]1C(N)=O
With B2, the equilibrium dissociation constant (Kd) was 2.63 µM.
